Source: patent publication US20250018014A1, “METHOD FOR TREATING AND/OR PREVENTING REGNASE-1-RELATED DISEASE” (OSAKA UNIVERSITY, priority 2018, published 2025)
Positions count from the first letter of the chain named. Entries after “also recorded” stand apart in the source; their conditions may differ.

Assays:
[1] = system: appearance of non-phosphorylated Regnase-1 in MEF; test: Immunoblot analysis of Regnase-1 in MEFs during the recovery phase after IL-17A stimulation; type: cell-based, mouse; details: after IL-17A (50 ng/ml) one hour; cycloheximide and okadaic acid (0.5 μM)
Experimental: Total mRNA was prepared from cells treated with doxycycline for 0 to 4 hours, and then subjected to Northern blotting using [^32P] labelled probes. […] Cells were treated with IL-17A (50 ng/ml) for one hour, and subsequently incubated in a medium with no additives (control), a medium containing cycloheximide (100 μM), or a medium containing both cycloheximide and okadaic acid (0.5 μM) for 0 to 240 minutes. […] The qPCR data (A, B, and E) were collected from four independent experiments. The error bars represent mean±SEM. ***P<0.005.
Next, the present inventors investigated the mechanism of target mRNA suppression in Regnase-1AA/AA cells. As described above, suppression of target mRNA is more enhanced at later stages of IL-17A stimulation. The present inventors used immunoblot analysis of phosphorylated and non-phosphorylated Regnase-1 during the recovery phase after the completion of IL-17A stimulation. […] The increase in the amount of non-phosphorylated Regnase-1 protein was enhanced much more strongly in Regnase-1AA/AA MEF than in wild type cells.

[2] = system: IL-6 mRNA stability in Regnase-1AA/AA MEF; test: qPCR analysis of IL-6 mRNA levels in Regnase-1AA/AA MEFs after TNF-α and IL-17A, with ActD; type: cell-based, mouse; details: ActD and okadaic acid (0.5 μM)
[3] = system: Regnase-1 phosphorylation upon IL-17A stimulation in MEF; test: Immunoblot analysis of Regnase-1 in wild-type MEFs stimulated with IL-17 in the presence of BX795; type: cell-based, mouse; details: BX795 (50 μM)
Description: The two arrows indicate the phosphorylated form (upper) and unphosphorylated form (lower) of Regnase-1.
To identify the kinase responsible for Regnase-1 phosphorylation in the IL-17A signaling pathway, the inventors investigated a series of MEFs lacking TBK1, IKKi, TBK1/IKKi, Act1, IKKa/IKKβ, or IRAK1/IRAK2. […] To investigate whether TBK1 and IKKi directly phosphorylate Regnase-1, the present inventors prepared recombinant Regnase-1 purified from a MEF cell line stably expressing FLAG-tagged Regnase-1. Phosphorylation of recombinant Regnase-1 by recombinant TBK1 and/or IKKi under in vitro conditions was detected as an electrophoretic mobility shift pattern by immunoblotting and ^32P autoradiography (FIG. 12-2D). […] The phosphorylation pattern of Regnase-1 by IRAK appeared to be similar to that by TBK1 and IKKi, but Regnase-1 phosphorylation occurred in IRAK1/IRAK2 double-deficient MEF (FIG. 12-2E). In contrast, Regnase-1 phosphorylation in response to IL-1β occurred in TBK1/IKKi double-deficient MEF (FIG. 12-3J).

[4] = target: T1, Peptide 1 ([…]), partial peptide of human Regnase-1 (Homo sapiens, UniProt Q5D1E8); test: Binding of anti-non-phosphorylated Regnase-1 peptide antibodies to bead-bound Peptide 1 (iQue screener); details: streptavidin-immobilized beads; histograms FIG. 32
T1 construct: […], biotin-conjugated peptide; made in house; host or cells: chemical synthesis
Experimental: (§1) • Biotin-Conjugated FL_Reg1, Biotin-Conjugated Peptide • […], biotin-conjugated peptide • AFPPREYWSEPYPLPPPTC-NH2, and biotinylated BSA (Sigma, A8549) were each bound to streptavidin-immobilized beads.
(§2) These beads were mixed with each anti-Regnase-1 antibody, and they were allowed to react. Thereafter, Anti-Rabbit IgG1 Alexa488 (molecular probes, A21244) was mixed and reacted, and analysis was performed with iQue screener PLUS (intellicyt). Data was analyzed with FlowJo ver10.

[5] = target: T2, FL_Reg1 (human full-length Regnase-1) (Homo sapiens, UniProt Q5D1E8); test: Binding of anti-non-phosphorylated Regnase-1 peptide antibodies to bead-bound full length human Regnase-1 (iQue screener); details: streptavidin-immobilized beads; histograms FIG. 32
T2 construct: made in house; host or cells: Expi293 cells
T2 sequence (Q5D1E8 1-599): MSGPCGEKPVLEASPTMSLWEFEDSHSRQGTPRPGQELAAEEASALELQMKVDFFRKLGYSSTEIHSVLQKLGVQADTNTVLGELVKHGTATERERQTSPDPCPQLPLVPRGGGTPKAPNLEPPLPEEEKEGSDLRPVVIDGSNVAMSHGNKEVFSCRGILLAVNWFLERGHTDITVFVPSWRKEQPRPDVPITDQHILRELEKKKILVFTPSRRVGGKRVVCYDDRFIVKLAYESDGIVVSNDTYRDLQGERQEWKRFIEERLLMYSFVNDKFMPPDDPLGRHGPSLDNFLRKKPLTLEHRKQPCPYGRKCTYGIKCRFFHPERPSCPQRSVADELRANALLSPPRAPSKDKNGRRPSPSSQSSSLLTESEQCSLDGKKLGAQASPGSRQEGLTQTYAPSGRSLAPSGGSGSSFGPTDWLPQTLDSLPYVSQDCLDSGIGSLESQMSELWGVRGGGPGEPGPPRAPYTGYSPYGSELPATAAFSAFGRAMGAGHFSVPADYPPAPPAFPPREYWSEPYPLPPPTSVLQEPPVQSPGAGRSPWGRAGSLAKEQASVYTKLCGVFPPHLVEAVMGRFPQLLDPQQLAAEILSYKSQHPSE
Experimental: as §1, §2

[6] = target: T3, Regnase-1 phosphorylation by IKKβ (Homo sapiens, UniProt Q5D1E8); test: Inhibitory activity of anti-Regnase-1 antibodies against Regnase-1 phosphorylation by IKKβ (Phos-tag gel, western blotting); type: biochemical; details: antibody at final concentrations of 16.7 μg/mL and 5.0 μg/mL; relative to Control group
T3 construct: GST (N, cleaved yes); made in house; host or cells: Expi293 cells
T3 sequence (Q5D1E8 1-599): T2 sequence (Q5D1E8 1-599)
Experimental: To a solution (ATP buffer) containing Kinase Assay Buffer III (manufactured by SignalChem) supplemented with 2 mM DTT, 100 μM sodium vanadate, 2 mM manganese chloride, and 15 μM ATP, dephosphorylated Regnase-1 was mixed at 150 nM. Four microliters of this solution and 4 μL of HEPES Buffered Saline containing 50 μg/mL or 15 μg/mL of anti-Regnase-1 antibody were mixed, and this was allowed to react for one hour. This reaction solution was mixed with 4 μL of ATP buffer containing 150 nM of each kinase (IKKβ or TBK1), and further reacted for one hour. After the reaction, 4 μL of 4× Laemmli Sample buffer (manufactured by Bio-Rad) was added and this mixture was incubated at 95° C. for five minutes for protein denaturation treatment. This sample was ice-cooled for three minutes, and 10 μL of it was added to SuperSep Phos-tag 7.5% 17 wells (manufactured by Wako) placed in EasySeparator (manufactured by Wako). […] Chemiluminescence was detected using ImageQuant LAS4000 mini (manufactured by GE Healthcare).
A band for phosphorylated Regnase-1 was detected due to treatment with each kinase (FIG. 33A). Band densities were measured with Image Quant-TL (manufactured by GE Healthcare). The relative value for the band density of the sample to which each compound was added was calculated, considering the band density of the kinase-added sample of the Control group, to which no compound was added, as 1. […]

C=C1[C@@H](O)[C@@H]2O[C@]3(CC[C@H](/C=C/[C@@H](C)[C@@H]4CC(C)=C[C@@]5(O[C@H](C[C@@](C)(O)C(=O)O)CC[C@H]5O)O4)O3)CC[C@H]2O[C@@H]1[C@@H](O)C[C@H](C)[C@H]1O[C@@]2(CCCCO2)CC[C@H]1C [okadaic acid]
appearance of non-phosphorylated Regnase-1 during the recovery phase [1]: non-phosphorylated Regnase-1 did not appear | IL-6 mRNA stability / half-life [2]: IL-6 mRNA stability was also enhanced; also recorded: dramatic increase in the half-life of IL-6 mRNA

O=C(NCCCNc1nc(Nc2cccc(NC(=O)N3CCCC3)c2)ncc1I)c1cccs1 [BX795]
Regnase-1 phosphorylation upon IL-17A stimulation [3]: inhibited Regnase-1 phosphorylation

B1: REA0023: anti-Regnase-1 antibody; heavy chain SEQ ID NO: 20, light chain SEQ ID NO: 21 (antibody)
heavy: QSLEESGGDLVKPGASLTLTCTDAGFSFSGVYWMHWVRQAPGKGLEWIACINAGSSGSTYYASWAKGRFTISKPSSTTVTLQMTSLTVADTATYFCARSFTLWGPGTLVTVSSGQPKAPSVFPLAPCCGDTPSSTVTLGCLVKGYLPEPVTVTWNSGTLTNGVRTFPSVRQSSGLYSLSSVVSVTSSSQPVTCNVAHPATNTKVDKTVAPSTCSKPTCPPPELLGGPSVFIFPPKPKDTLMISRTPEVTCVVVDVSQDDPEVQFTWYINNEQVRTARPPLREQQFNSTIRVVSTLPITHQDWLRGKEFKCKVHNKALPAPIEKTISKARGQPLEPKVYTMGPPREELSSRSVSLTCMINGFYPSDISVEWEKNGKAEDNYKTTPAVLDSDGSYFLYNKLSVPTSEWQRGDVFTCSVMHEALHNHYTQKSISRSPGK
light: AVVTQTPSSVSAAVGGTVTIKCQSSQSVGNNNYLAWFQQKPGQPPKLLIYSASTLASGVPSRFSGSGSGTQFTLTISGVQCDDAATYYCLGGYDGDGEAFYVFGGGTEVVVKGDPVAPTVLIFPPAADQVATGTVTIVCVANKYFPDVTVTWEVDGTTQTTGIENSKTPQNSADCTYNLSSTLTLTSTQYNSHKEYTCKVTQGTTSVVQSFNRGDC
binding to Peptide 1 compared with biotinylated BSA [4]: bound more strongly | binding to FL_Reg1 compared with biotinylated BSA [5]: bound more strongly | density of the phosphorylated Regnase-1 band in IKKβ treatment [6]: decreased

B2: REA0027: anti-Regnase-1 antibody; heavy chain SEQ ID NO: 22, light chain SEQ ID NO: 23 (antibody)
heavy: B1 heavy with D23A, A24S, S27G, G30S, V31S, G57T, S58K, R98W, T101N
light: B1 light with Y33W
binding to Peptide 1 compared with biotinylated BSA [4]: bound more strongly | binding to FL_Reg1 compared with biotinylated BSA [5]: bound more strongly | density of the phosphorylated Regnase-1 band in IKKβ treatment [6]: decreased
